Source: patent publication US20150273076A1, “SP1 POLYPEPTIDES, MODIFIED SP1 POLYPEPTIDES AND USES THEREOF” (Fulcrum SP Ltd., priority 2006, published 2015)
Positions count from the first letter of the chain named. Values after ≈ are worked out from the molar mass of the structure shown. “Also recorded” adds a separate entry of the source.

B1: CRGD2: SP1 fusion protein with N-terminal tumor specific peptide CRGD, SEQ ID NO:5 (protein)
chain: MCRGDATRTPKLVKHTLLTRFKDEITREQIDNYINDYTNLLDLIPSMKSFNWGTDLGMESAELNRGYTHAFESTFESKSGLQEYLDSAALAAFAEGFLPTLSQRLVIDYFLY
modifications: Sp1 mutant variant Cys, Arg, Gly and Asp inserted into position 2
B2: RGDC2: SP1 fusion protein with N-terminal peptide RGDC, SEQ ID NO:6 (protein)
chain: B1 chain with C2R, R3G, G4D, D5C
modifications: Sp1 mutant variant Arg, Gly, Asp and Cys inserted into position 2
B3: Cys2: SP1 variant with cysteine residue inserted in position 2, SEQ ID NO:3 (protein)
chain: MCATRTPKLVKHTLLTRFKDEITREQIDNYINDYTNLLDLIPSMKSFNWGTDLGMESAELNRGYTHAFESTFESKSGLQEYLDSAALAAFAEGFLPTLSQRLVIDYFLY
modifications: Sp1 mutant variant Cys in position 2

Columns and labels:
[1] = tested on: Human colon adenocarcinoma (HT-29) cells; experiment: In-vitro cytotoxicity in HT-29 cells; format: cell-based
Description: FIGS. 24a and 24b are graphs illustrating the in-vitro cytotoxic effects of SP1-DOX complex. FIG. 24a—HT-29 cells cultured in 96 well microtiter plates were exposed to uncomplexed DOX (closed oval, magenta) or SP1-DOX complex (closed triangle, blue) prepared as described in FIGS. 9-15, at the indicated concentrations. FIG. 24b—HT-29 cells were exposed to uncomplexed SP1 (without DOX) (closed diamond, blue) or SP1-DOX complex (closed triangle, yellow) at indicated concentrations. Proportion of living cells was determined by MTT assay, and the IC50 was calculated.
HT-29 cells were prepared as in FIG. 24 above.
Human colon adenocarcinoma (HT-29) cells. The cells were grown in 50-ml flasks containing DMEM medium (Biological Industries, Bet Haemek), supplemented with 10% fetal calf serum, 1% glutamine and 1% Antibiotic-Antimicotic solution (Biolab, Israel). The cells were trypsinizated, and 2 ml medium containing 5×10^4 cells were plated in each well of a 6-wells plate. SP1, drugs or SP1-complexed with drugs was added at the indicated concentrations. The cells were incubated at 37° C. in a humidified atmosphere containing 5% CO2.After 48 hours the medium in the presence or absence of drugs was replaced in each well respectively, to maintain a constant supply of ingredients and drugs. After four days the medium was removed and the number of viable cells in the cultures was determined by spectroscopy.
The human colorectal adenocarcinoma cell line, HT-29, was used to evaluate the biological activity of the SP1-DOX complex, compared to that of the free drug and un-complexed SP1 protein. […] Thus, the SP1-DOX complex is at least as biologically active as free DOX.

[2] = Doxorubicin complex formation and release (ultrafiltration, HPLC, SDS PAGE fluorescence); format: binding; details: for DOX complex formation: reducing conditions (DTT or GSH)
Experimental: Pure wild type SP1 or Cys2 SP1 mutant (1.5 mg/ml in 20 mM Sodium Phosphate buffered, pH=6.8) were incubated overnight at room temp, with DOX 1 mg/ml in the presence of DTT (10 mM), with gentle rolling. Binding reaction was stopped by adding hydrogen peroxide (0.01%), followed by ultra filtration (using 30 kD cutoff filter) and extensive wash until follow-through become colorless. Optical density was measured at both 278 and 477 nm using nanodrop spectrophotometer. Note the dramatic effect of the reducing agent on drug binding by the Cys2 SP1, compared to the absence of effect on the wild type SP1.
FIG. 13 is a histogram illustrating the redox-dependent release of Doxorubicin by Cys2 SP1. Doxorubicin (DOX) was complexed within Cys2 SP1 as described in FIGS. 9-12 above. Release of the drug in the presence of 0, 2 and 20 mM GSH was measured by ultrafiltration and size exclusion HPLC analysis (detection at 228 and 475 nm);
FIG. 14 is a histogram illustrating the effect of oxidation on DOX complex formation by Cys2 SP1. Doxorubicin (DOX) was reacted with Cys2 SP1 and wild type SP1 as described in FIGS. 9-13 above. Oxidized protein indicates exposure to excess of H2O2 prior to treatment with GSH. DOX complex formation was measured by ultrafiltration and size exclusion HPLC analysis (detection at 228 and 475 nm). […] 1=the retentate; 2=the flow through; and 3=a DOX standard 20 μg/ml.
FIG. 17 is a photograph of a fluorescent PAGE analysis illustrating effective complex formation with DOX by Cys2 and SP1 fusion proteins. Recombinant wild type (lanes 1 and 2), Cys2 (lanes 3 and 4), and SP1 fusion proteins having additional N-terminal tumor specific peptide RGD (CRGD, SEQ ID NO:151; fusion protein is SEQ ID NO: 5)(lanes 5 and 6), or RGD in reverse order (RGDC, SEQ ID NO: 152; fusion protein is SEQ ID NO: 6)(lanes 7 and 8) were reacted with DOX to form complex as described in FIGS. 9-14 above, and then separated on SDS-PAGE with (lanes 2, 4, 6 and 8) or without (lanes 1, 3, 5 and 7) denaturation by boiling in LSB.
(§1) Ultrafiltration was used for the detection of complex formation with the water soluble ligands FA and DOX which have a distinctive absorption properties and can be determined by spectroscopic measurements. […] Several additional washing cycles remove all remaining free FA and DOX, and the ligand-SP1 complex remains in the retained fraction.
(§2) Size exclusion chromatography is a common method for separation of molecules of different sizes under mild conditions and was employed to test FA and DOX complex formation under mild conditions. SP1 is eluted from the column after 7 min and is detected at 278 nm only, and free FA is eluted from the column (TSK G3000 SWXL, Tosohaas) after 16 min and is detected at 490 nm. The SP1-FA and SP1-DOX complexes also eluted at the same time but is detected also at 490 and 475 nm, respectively. DOX/SP1 ratio is determine from the standard curve obtained in solution.
Reverse phase HPLC (RP-HPLC) analysis separates between free DOX, PXT, and SP1. Both compounds bind to the resin (C-18) and are eluted at different acetonitrile concentrations, and detected at both 278 and 225 nm (SP1), 225 nm (PTX) and 477 nm (DOX).
Pyrogen free Cys2 SP1 variant (SEQ ID NO:3) in 20 mM (Na Phosphate buffer pH-6.7) final 2 mg/ml was diluted with DOX solution (Teva, Israel) 1:2 dilution final 1 mg/ml. Where indicated, GSH was added, and the solution is mixed overnight. Where indicated (oxidized), H2O2 is added to 0.1%, buffer added to 3× volume, and the solution is sonicated (3×22 sec. 1:1 pulse/pause at 3% amplitude 0.5 min. pause, using a Vibra-Cell 750 W sonicator).

[3] = Heat stability (no precipitation after heat treatment); details: 10 min at 100° C. or 30 min at 85° C.
[4] = Oligomeric complex formation by SDS PAGE (unboiled samples); details: boiling and protease stability
Experimental: SP1 (20 μg) was prepared in SDS sample buffer at different SP1-monomer: SDS molar ratios and boiled (or not) (5 mM) prior to SDS-PAGE analysis. Heat stability of SP1 oligomer (10 μg) was tested in the same buffer at SP1-monomer: SDS=1:1733 and heated for 1 to 10 mM at different temperatures.
Purified 6HSP1 and ΔNSP1 were first denatured to the monomeric forms by boiling the proteins in SDS sample buffer. The denatured proteins were then separated in preparative SDS-PAGE, and visualized by Coomassie blue staining. The monomeric forms of two recombinant protein bands were excised. Gel slices that carried monomeric form of 6HSP1 (SEQ ID NO:7) and ΔNSP1 (SEQ ID NO:2) were mixed at 1:1 ratio (v/v). In order to enhance the surface/volume ratio, the gel slices were pulverized using a pestle and mortar in the presence of liquid nitrogen. […] The hetero-oligomeric complex was isolated by subjecting the eluated protein to Ni-NTA Agarose beads and the bound proteins were eluted by 400 mM imidazole using a standard procedure (Sigma protocol for P 6611). […] The composition of hetero-oligomeric SP1 was determined by SDS-PAGE and visualized by silver staining.

[5] = Resistance of SP1 complex to organic solvents; format: physicochemical
Experimental: 150 ul of 1 mg/ml samples in 10 mM sodium phosphate pH 7 were lyophilized overnight and resuspended in 150 μl organic solvents for 10 minutes. Following a 30 minutes speed vac the samples were resuspended in 150 μl water and analyzed by SDS-PAGE.
In order to further test the stability of SP1 and SP1 oligomeric complexes, wild type SP1 and the SP1 variant Cys2 SP1 were dissolved in buffer, exposed to organic solvents methanol and hexane, and analyzed by SDS-PAGE (FIG. 18).
In order to determine the stability of the SP1 complex in organic solvents, SP1 and Cys2 SP1-variant (SEQ ID NO: 3) were dissolved in organic solvents, dried, reconstituted with aqueous solvent, and separated on SDS-PAGE.

[6] = Fluorescein-amine complex formation (ultrafiltration, size exclusion HPLC); format: binding
Experimental: FIG. 9 is a histogram showing redox-dependent complex formation with small molecules by Cys2 SP1. Pure Cys 2 mutant (1.5 mg/ml in Phosphate buffered saline, pH=7.5 (PBS)) was incubated for 2 hours at room temp, with I mM fluorescein-amine with or without glutathione (reduced form, GSH 3 mM). Binding reaction was stopped by adding hydrogen peroxide (0.01%), followed by ultra filtration (using a 30 kD cutoff filter) and extensive wash. Absorption analysis was conducted at both 278 and 492 nm, and the results expressed as the 492/278 ratio. Note that in the absence of the reducing agent (GSH), retention of the flourescein-amine is negligible;
FIG. 10 is a graphic representation of the redox-dependent fluorescein amine complex formation by Cys2 SP1, compared to the recombinant SP1. Fluorescein-amine was incubated with pure SP1 or Cys2 SP1 mutant (1.5 mg/ml in PBS pH=7.5) in the absence or presence of DTT (10 mM). Binding reaction was stopped by adding hydrogen peroxide (0.01%), followed by ultra filtration (using 30 kD cutoff filter) and extensive wash. Samples were analyzed by Gel filtration HPLC, and detected at both 228 and 490 nm. Calculated data is shown on the right.
FIG. 11 is a histogram illustrating the concentration dependent complex formation with fluorescein-amine by Cys2 SP1. Huorescien-amine (10, 33, 100 or 333 mM) was incubated with Cys 2 SP1 or pure wild type SP1 in the presence of 10 mM DTT, and the bound and unbound fractions analyzed by ultra-filtration and HPLC as in FIG. 10.
as §1, §2
5. Can complexed ligand be stabilized by association with the Cys2 SP1? Fluoresceine amine (FA): FA absorption peak is at 490 nm and at much lower extend at 278 nm (for a given FA concentration OD278/OD490=0.19)(see FIG. 31), when SP1 absorption peak is at 278 nm (see FIG. 30), and it is not detected at 490 nm. […] FA complexing with the Cys2 Sp1 variant was determined following incubation of FA and Cys2 SP1 variant in the absence or presence of GSH, followed by protein oxidation, ultra filtration (30 kDa cutoff) and exhaustive wash of the retained fraction with PBS with or without GSH. Absorption analysis at both 278 and 490 nm.

Molecule	IC50 ([1]; Homo sapiens, HT-29 cells, dose inhibiting 50% of cell growth, read-out: IC50)	biological activity after storage in aqueous solution ([1]; at least 3 weeks storage in aqueous solution)	DOX complex formation [2]	Heat stability [3]	oligomeric complex formation, stability and resistance [4]	oligomeric complex formation, stability and resistance ([4]; listed as CRGD SP1)	oligomeric complex formation, stability and resistance ([4]; listed as RGDC SP1)	protease resistance after hexane treatment ([5]; hexane-treated, data not shown)	resistance of oligomeric complex to organic solvents ([5]; methanol, hexane, SDS-PAGE)	FA complexing at low ligand concentration ([6]; 10 μM FA, 10 mM DTT)	efficiency of FA complexing in the presence of reducing agents ([6]; 10 mM DTT)	retention of the flourescein-amine ([6]; absence of the reducing agent (GSH), 492/278 ratio)	efficiency of FA complexing relative to wild type SP1 ([6]; ≧100 μM FA)	DOX complexing after oxidation prior to DOX addition ([2]; oxidized protein (H2O2))	DOX complex formation ([2]; listed as Cys2 SP1 variant)
CC(=O)O[C@H]1C(=O)[C@@]2(C)[C@H]([C@H](OC(=O)c3ccccc3)[C@]3(O)C[C@H](OC(=O)[C@H](O)[C@@H](NC(=O)c4ccccc4)c4ccccc4)C(C)=C1C3(C)C)[C@]1(OC(C)=O)CO[C@@H]1C[C@@H]2O [PTX, paclitaxel]	~0.01 µg/mL (≈ 0.0117 µM)	becomes inactive													
B1			effective binding	+	formed a boiling stable and protease resistant dodecamer	formed homo- and hetero-oligomeric complexes									
B2			effective binding	+	formed a boiling stable and protease resistant dodecamer		formed homo- and hetero-oligomeric complexes								
B3			effective binding	+	formed homo- and hetero-oligomeric complexes			resistance to protease treatment	Predominantly high molecular weight oligomer complex form; also recorded: even more resistant than the wild type	efficient complexing	greater than 3 fold	negligible	greater than 3 fold	eliminates DOX complexing	much greater extent
